These results are taken from the supplement of paper PMC9112550, “Optimization of the antimicrobial peptide Bac7 by deep mutational scanning” (BMC Biology, 2022).
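Note: peptides expressed intracellularly from a pBAD plasmid library in pooled LB shake-flask culture, induced with 0.3% L-arabinose, DNA abundance read by NGS, three biological replicates, DESeq2 with apeglm shrinkage.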

This data set concerns Escherichia coli TOP10. The data set is described as follows: shrunken log2 fold change of peptide-encoding DNA abundance (4.5 h post-induction vs induction); higher = less antimicrobial activity (less host growth inhibition). The note with it: time post-induction: 4.5 h; library: site-saturation at positions 5, 18, 19, 20.
As for RRIRHRPPRLPRPRPRPAKDPRP, the “shrunken log2 fold change” value was -0.0214.

On to RRIRLRPPRLPRPRPRPESTPRP, for which the “shrunken log2 fold change” value was 0.0274.

For RRIRERPPRLPRPRPRPWTGPRP, the “shrunken log2 fold change” value is -0.00968.

Turning to RRIRKRPPRLPRPRPRPFTPPRP, the “shrunken log2 fold change” value is 0.0993.

Consider RRIRCRPPRLPRPRPRPYMKPRP, for which the “shrunken log2 fold change” value was -0.582.

RRIRKRPPRLPRPRPRPYEFPRP: the “shrunken log2 fold change” value stood at 0.101.

On to RRIRFRPPRLPRPRPRPVDHPRP, for which the “shrunken log2 fold change” value is -0.179.

Regarding RRIRVRPPRLPRPRPRPSFNPRP, the “shrunken log2 fold change” value is -0.411.

On to RRIRYRPPRLPRPRPRPLWWPRP, for which the “shrunken log2 fold change” value was -0.696.

Take RRIRQRPPRLPRPRPRPNWIPRP: the “shrunken log2 fold change” value is -0.0614.

RRIRDRPPRLPRPRPRPVRNPRP: the “shrunken log2 fold change” value amounted to 0.282.

Regarding RRIRDRPPRLPRPRPRPCCVPRP, the “shrunken log2 fold change” value is -0.158.

For the sequence RRIRWRPPRLPRPRPRPHNLPRP, the “shrunken log2 fold change” value was -0.414.

RRIRNRPPRLPRPRPRPFIIPRP: the “shrunken log2 fold change” value was -0.41.

As for RRIRVRPPRLPRPRPRPAGAPRP, the “shrunken log2 fold change” value was determined as 0.417.

In the case of RRIRWRPPRLPRPRPRPNHTPRP, the “shrunken log2 fold change” value was -0.323.

RRIRSRPPRLPRPRPRPAWHPRP: the “shrunken log2 fold change” value was found to be 0.0201.

For RRIRWRPPRLPRPRPRPILGPRP, the “shrunken log2 fold change” value was -0.0119.

Take RRIRPRPPRLPRPRPRPFYHPRP: the “shrunken log2 fold change” value was -0.547.

Take RRIRQRPPRLPRPRPRPEMFPRP: the “shrunken log2 fold change” value is -0.118.

Turning to RRIRIRPPRLPRPRPRPIDDPRP, the “shrunken log2 fold change” value turned out to be 0.0145.

Regarding RRIRMRPPRLPRPRPRPNVHPRP, the “shrunken log2 fold change” value was -0.333.

Regarding RRIRMRPPRLPRPRPRPDTRPRP, the “shrunken log2 fold change” value was -0.0141.

As to RRIRYRPPRLPRPRPRPQQIPRP, the “shrunken log2 fold change” value was -0.142.

Regarding RRIRIRPPRLPRPRPRPICEPRP, the “shrunken log2 fold change” value was -0.0283.

On to RRIRIRPPRLPRPRPRPKAQPRP, for which the “shrunken log2 fold change” value was -0.0442.

On to RRIRWRPPRLPRPRPRPPDYPRP, for which the “shrunken log2 fold change” value was 0.184.

Turning to RRIRKRPPRLPRPRPRPSFPPRP, the “shrunken log2 fold change” value was -0.0425.

For the sequence RRIRLRPPRLPRPRPRPNSLPRP, the “shrunken log2 fold change” value is -0.101.

RRIRSRPPRLPRPRPRPVFNPRP: the “shrunken log2 fold change” value is -0.709.

On to RRIRPRPPRLPRPRPRPSDNPRP, for which the “shrunken log2 fold change” value is -0.449.

Turning to RRIRLRPPRLPRPRPRPPSFPRP, the “shrunken log2 fold change” value is -0.244.

Turning to RRIRTRPPRLPRPRPRPTCWPRP, the “shrunken log2 fold change” value turned out to be 0.00427.

As to RRIRHRPPRLPRPRPRPVSEPRP, the “shrunken log2 fold change” value was -0.254.

Take RRIRNRPPRLPRPRPRPWVDPRP: the “shrunken log2 fold change” value was -0.00748.

On to RRIRQRPPRLPRPRPRPVFWPRP, for which the “shrunken log2 fold change” value was 0.113.

With RRIRLRPPRLPRPRPRPQDGPRP, the “shrunken log2 fold change” value is -0.0806.

Turning to RRIRGRPPRLPRPRPRPGCTPRP, the “shrunken log2 fold change” value was 0.885.

Consider RRIRTRPPRLPRPRPRPHRLPRP, for which the “shrunken log2 fold change” value was -0.387.

On to RRIRMRPPRLPRPRPRPTGPPRP, for which the “shrunken log2 fold change” value was found to be 0.388.

With RRIRPRPPRLPRPRPRPVCCPRP, the “shrunken log2 fold change” value amounted to 0.122.

As to RRIRQRPPRLPRPRPRPMWNPRP, the “shrunken log2 fold change” value was -0.123.

In the case of RRIRMRPPRLPRPRPRPERGPRP, the “shrunken log2 fold change” value was found to be 1.39.

RRIRLRPPRLPRPRPRPDIAPRP: the “shrunken log2 fold change” value is 0.024.

For the sequence RRIRVRPPRLPRPRPRPMSFPRP, the “shrunken log2 fold change” value was -0.157.

Consider RRIRHRPPRLPRPRPRPILRPRP, for which the “shrunken log2 fold change” value is -0.178.

Consider RRIRDRPPRLPRPRPRPGSHPRP, for which the “shrunken log2 fold change” value came out at 0.235.

As for RRIRKRPPRLPRPRPRPIMWPRP, the “shrunken log2 fold change” value worked out at 0.0599.

As for RRIRCRPPRLPRPRPRPPSVPRP, the “shrunken log2 fold change” value was 0.292.

In the case of RRIRIRPPRLPRPRPRPLMHPRP, the “shrunken log2 fold change” value was -0.384.

With RRIRNRPPRLPRPRPRPREPPRP, the “shrunken log2 fold change” value turned out to be 0.697.

Consider RRIRIRPPRLPRPRPRPLPVPRP, for which the “shrunken log2 fold change” value is 0.094.

Take RRIRRRPPRLPRPRPRPHLPPRP: the “shrunken log2 fold change” value amounted to 0.141.

Consider RRIRWRPPRLPRPRPRPRCHPRP, for which the “shrunken log2 fold change” value came out at 0.33.

For the sequence RRIRVRPPRLPRPRPRPCMGPRP, the “shrunken log2 fold change” value is -0.234.

In the case of RRIRVRPPRLPRPRPRPVCEPRP, the “shrunken log2 fold change” value was 0.206.

In the case of RRIRVRPPRLPRPRPRPFKMPRP, the “shrunken log2 fold change” value is -0.398.

In the case of RRIRTRPPRLPRPRPRPGDVPRP, the “shrunken log2 fold change” value stood at 0.0978.

For RRIRRRPPRLPRPRPRPKIFPRP, the “shrunken log2 fold change” value came out at 0.0586.

For the sequence RRIRLRPPRLPRPRPRPDTIPRP, the “shrunken log2 fold change” value was -0.21.

With RRIRGRPPRLPRPRPRPSPLPRP, the “shrunken log2 fold change” value is 0.539.

On to RRIRWRPPRLPRPRPRPVQNPRP, for which the “shrunken log2 fold change” value came out at 0.316.

Regarding RRIRLRPPRLPRPRPRPGPIPRP, the “shrunken log2 fold change” value turned out to be 0.195.

Consider RRIRFRPPRLPRPRPRPFPQPRP, for which the “shrunken log2 fold change” value was -0.173.

Regarding RRIRTRPPRLPRPRPRPFTPPRP, the “shrunken log2 fold change” value is -0.0472.

As for RRIRVRPPRLPRPRPRPNLKPRP, the “shrunken log2 fold change” value was -0.0252.

Take RRIRGRPPRLPRPRPRPWLKPRP: the “shrunken log2 fold change” value is -0.24.

Turning to RRIRFRPPRLPRPRPRPGLLPRP, the “shrunken log2 fold change” value is 0.032.

On to RRIRKRPPRLPRPRPRPSLKPRP, for which the “shrunken log2 fold change” value was -0.0893.

Consider RRIRTRPPRLPRPRPRPDRAPRP, for which the “shrunken log2 fold change” value was -0.438.

As to RRIRIRPPRLPRPRPRPCFNPRP, the “shrunken log2 fold change” value was -0.87.

With RRIRGRPPRLPRPRPRPQRCPRP, the “shrunken log2 fold change” value is 0.0883.

With RRIRERPPRLPRPRPRPTCEPRP, the “shrunken log2 fold change” value is -0.122.

As to RRIRHRPPRLPRPRPRPFKEPRP, the “shrunken log2 fold change” value was -0.289.

Take RRIRSRPPRLPRPRPRPSDAPRP: the “shrunken log2 fold change” value came to 0.0409.

For the sequence RRIRLRPPRLPRPRPRPCPKPRP, the “shrunken log2 fold change” value is 0.136.

RRIRPRPPRLPRPRPRPHWPPRP: the “shrunken log2 fold change” value turned out to be 0.0791.

On to RRIRCRPPRLPRPRPRPFRMPRP, for which the “shrunken log2 fold change” value is -0.113.

With RRIRMRPPRLPRPRPRPDVDPRP, the “shrunken log2 fold change” value was 0.104.

As to RRIRTRPPRLPRPRPRPAILPRP, the “shrunken log2 fold change” value is -0.157.

In the case of RRIRLRPPRLPRPRPRPCFPPRP, the “shrunken log2 fold change” value is -0.206.

For RRIRLRPPRLPRPRPRPRNKPRP, the “shrunken log2 fold change” value was -0.156.

Consider RRIRMRPPRLPRPRPRPTWPPRP, for which the “shrunken log2 fold change” value worked out at 0.837.

On to RRIRGRPPRLPRPRPRPLFAPRP, for which the “shrunken log2 fold change” value was determined as 1.36.

As for RRIRPRPPRLPRPRPRPNIHPRP, the “shrunken log2 fold change” value is -0.579.

Take RRIRSRPPRLPRPRPRPQRRPRP: the “shrunken log2 fold change” value turned out to be 0.21.

As for RRIRRRPPRLPRPRPRPIQLPRP, the “shrunken log2 fold change” value was -0.407.

With RRIRIRPPRLPRPRPRPMWCPRP, the “shrunken log2 fold change” value was -0.168.

Consider RRIRPRPPRLPRPRPRPPFMPRP, for which the “shrunken log2 fold change” value was 0.315.

With RRIRFRPPRLPRPRPRPGTQPRP, the “shrunken log2 fold change” value is -0.0219.

As for RRIRMRPPRLPRPRPRPHKTPRP, the “shrunken log2 fold change” value was 0.0147.

For the sequence RRIRPRPPRLPRPRPRPYISPRP, the “shrunken log2 fold change” value was -0.75.

As to RRIRIRPPRLPRPRPRPQCMPRP, the “shrunken log2 fold change” value is -0.836.

As to RRIRMRPPRLPRPRPRPEVKPRP, the “shrunken log2 fold change” value turned out to be 2.97.

As to RRIRFRPPRLPRPRPRPCLCPRP, the “shrunken log2 fold change” value was -0.0404.

As for RRIRSRPPRLPRPRPRPRANPRP, the “shrunken log2 fold change” value turned out to be 0.174.

RRIRYRPPRLPRPRPRPNPCPRP: the “shrunken log2 fold change” value was -0.0242.

Take RRIRYRPPRLPRPRPRPISMPRP: the “shrunken log2 fold change” value is 0.0342.

Take RRIRGRPPRLPRPRPRPIHKPRP: the “shrunken log2 fold change” value was -0.16.

Consider RRIRLRPPRLPRPRPRPTVFPRP, for which the “shrunken log2 fold change” value stood at 0.156.

Take RRIRIRPPRLPRPRPRPQNLPRP: the “shrunken log2 fold change” value is -0.261.

For RRIRGRPPRLPRPRPRPGTFPRP, the “shrunken log2 fold change” value stood at 0.222.

Take RRIRPRPPRLPRPRPRPTYDPRP: the “shrunken log2 fold change” value was -0.212.

Regarding RRIRVRPPRLPRPRPRPSMNPRP, the “shrunken log2 fold change” value came to 0.331.

As for RRIRPRPPRLPRPRPRPMACPRP, the “shrunken log2 fold change” value is -0.161.

Turning to RRIRRRPPRLPRPRPRPHWPPRP, the “shrunken log2 fold change” value stood at 0.312.

As to RRIRTRPPRLPRPRPRPDLHPRP, the “shrunken log2 fold change” value was -0.174.

RRIRFRPPRLPRPRPRPAIVPRP: the “shrunken log2 fold change” value was -0.0488.

For RRIRGRPPRLPRPRPRPWEHPRP, the “shrunken log2 fold change” value is -0.000921.

For RRIRHRPPRLPRPRPRPHGCPRP, the “shrunken log2 fold change” value is -0.0438.

Take RRIRDRPPRLPRPRPRPFMSPRP: the “shrunken log2 fold change” value was -0.0203.

As to RRIRERPPRLPRPRPRPKLWPRP, the “shrunken log2 fold change” value was determined as 0.582.

For the sequence RRIRARPPRLPRPRPRPWYLPRP, the “shrunken log2 fold change” value was -0.161.

Turning to RRIRERPPRLPRPRPRPSLAPRP, the “shrunken log2 fold change” value is -0.0635.

With RRIRNRPPRLPRPRPRPKRQPRP, the “shrunken log2 fold change” value was -0.0692.

Regarding RRIRTRPPRLPRPRPRPESVPRP, the “shrunken log2 fold change” value is -0.0229.

Take RRIRNRPPRLPRPRPRPRLQPRP: the “shrunken log2 fold change” value turned out to be 0.0236.

With RRIRQRPPRLPRPRPRPPWEPRP, the “shrunken log2 fold change” value was -0.0075.

Turning to RRIRTRPPRLPRPRPRPSCDPRP, the “shrunken log2 fold change” value is -0.347.

RRIRKRPPRLPRPRPRPAGVPRP: the “shrunken log2 fold change” value came to 0.685.

On to RRIRVRPPRLPRPRPRPLGDPRP, for which the “shrunken log2 fold change” value is -0.125.

On to RRIRTRPPRLPRPRPRPLNAPRP, for which the “shrunken log2 fold change” value is -0.264.

Turning to RRIRQRPPRLPRPRPRPAHEPRP, the “shrunken log2 fold change” value was 0.185.

Regarding RRIRFRPPRLPRPRPRPVQKPRP, the “shrunken log2 fold change” value was found to be 0.00252.

Take RRIRSRPPRLPRPRPRPKDIPRP: the “shrunken log2 fold change” value was -0.828.
